Molecular target: recombinant extracellular domain (ECD) of human IL1RAP (S21-E359) (Homo sapiens, UniProt Q9NPH3)
Test: SPR

Sequence of recombinant extracellular domain (ECD) of human IL1RAP (S21-E359) (Q9NPH3 21-359): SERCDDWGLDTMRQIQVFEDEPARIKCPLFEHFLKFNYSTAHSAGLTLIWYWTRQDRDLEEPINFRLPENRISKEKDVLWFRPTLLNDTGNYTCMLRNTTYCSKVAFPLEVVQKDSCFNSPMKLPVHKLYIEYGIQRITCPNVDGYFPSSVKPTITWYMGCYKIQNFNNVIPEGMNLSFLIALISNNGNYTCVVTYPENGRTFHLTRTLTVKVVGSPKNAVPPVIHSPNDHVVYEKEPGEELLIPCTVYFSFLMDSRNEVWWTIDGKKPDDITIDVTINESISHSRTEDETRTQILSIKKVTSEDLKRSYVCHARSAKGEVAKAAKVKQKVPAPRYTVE

Kd: 2.2 nM
B1: anti-IL1RAP-24 Fab (Fab, V domains shown)
VH: QVQLQQSGPELVRPGVSVKISCKGSGYTFTDYAMHWVKQSHGKGLEWIGIISTYSGNTKFHQKFKGKATMTVDKSSSTAYMELARLTSEDSAIYYCARQGTWYFDVWGAGTTVTVSS
VL: QIVLTQSPAIMSASPGEKVTMTCSASSTIIYIHWYQQKPGTSPKGWIYDTSKLASGVPARFSGSGSGTSYSLTISSMEAEDAATYYCHQRTSYPWTFGGGTKLEIK

Source: PMC11325815 (Journal of Hematology & Oncology, 2024)
